Experiment: soluble fraction after stress (log2 fold change); higher = more stays soluble; pooled small domains, quantitative proteomics
Settings: stress: 50 degC
In short: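 Pooled custom libraries of small protein domains were each held under stress at 50°C. The read-out, high-throughput quantitative proteomics, tracked how much of each protein stayed soluble. This is reported as a base-two log fold change used to indicate aggregation propensity. Higher values mean more protein remains in solution.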

| Sequence | soluble fraction (log2) |
| --- | --- |
| HMFPDLSPEQQRIVDVLTKSNDLQLNQLSVKTGIPIGDITSILFQMEMMGVVKPMAGGNYHLL | -1.36 |
| HMGGEPKALLFAGVETREMAEITQRLEAADIPYEIREDGGSIYVARSEVFNARMMLSADGLPS | -0.109 |
| HMSNNENSILEKLNSFSGKKIKVSHTIGSLAARLDEYPKIKMWLYKRIRENSINEQAYKYLIFIIERKVR | -1.2 |
| HMTASKSTVSTPEKVVYHIVFPKETKYSIAKKYGITIEELEKRNPEIIPSLSVGQKLVIKGTAPK | -0.00327 |
| HMKESFAQLFSLLTPTEQKVAALISQGFSNKDIAAKMFISLSTVKTHTNHIFAKMGVANRNALVAKVNN | -1.08 |
| HMIVAHEINRHLGESDQPVEIPDNRREGAVAELLKTFNNDDAFREMDDGKYEVALDGEKVREAARSLLA | 0.027 |
| HMGGLAHPASGEEMEHLFAHLEGELLKSGFLFPPDKAAGMMRNIRAMLTRADFTDQEVRTLRGMIVALSRG | -1.66 |
| HMSQESIMPNLVGSTEDEAKAIAVEYGFQLNVISRVNNSQYPAGVIIDQNVDEGVRIKAGYPVGVTIS | -0.207 |
| HMGEGTAVGKALKFLAAQGKKFAPELLDMAGSLTGVEALSKLGDAIKGDPELSELDKRILLAELETDAV | -0.0713 |
| HMDLPDTLSMPNALKVLEDNGFPTSKAKLYKMTSQEQIPFMKYGNKLVFSRKALIEWAHKQLV | -1.1 |
| HMNFTETENRIYEEILKNVKQHKKKTVVQIAEKVDVAPSYVIKVAKKLGYSGLNEMWYSLSGIY | -0.54 |
| HMGGGFLVPSLVGKSLEEARSLSELRGFKLEVGDYVISSEYPAGRVTRQNPANGAKGQEGDVIKVEVSS | 0.0353 |
| HMTPAKQVSAKAERWIDQLGSSDWEKREEAAAELKKLGGAAKSALEKALKNADPEVASKAEELLEALES | 0.0311 |
| HMLTQEEITRRRGEILTAAMGVILRKGFLETSMREIAEAAGVGKSTLYDYFPSKDEIMIAYVVD | -0.938 |
| HMYKNLRAFRESLGMTQKDFAASLSIGLSTYNGYEVGAREPKSDFWIAVARKYGVTIDYLMGFSDDPHK | -1.11 |
| HMSHRVGDVVELTAVRMNDQGVFLDAGTGNTSDDILLHKHQMTSPVSVGDKVKVQLYLDAKNRITASMKL | -0.000204 |
| HMTTIAQNISNYRTRANMTQQQVADKLSVSHHTVSKWELGINTPSVEDMQKLAQVFGVTITELVVD | -0.239 |
| HMSSWMTKDGKIKPISKWAGVPMTSQQQADYAAGKVVELTNIPDKQGQLNTVYLKFNPEKQRPTTSLNDPR | 0.134 |
| HMRDTLSKQLLTEEMVLQFIREMREHDPGIGGEKLHAMYLGRFGRDYEYMVGRDKMEMIIAENNLNVR | -0.736 |

| Sequence | soluble fraction (log2) |
| --- | --- |
| HMINITALVKQLGGVDISKFNSAFKLLQQGKPLNTISNKVMADTFVALMKNSDEALNTKFRAAFKKI | -0.272 |
| HMGLAWTVEGRTVLLGRTADRIELYNVGGGLVALARESDRISAPGVGLYVVRVVSDGQSVSQKIWIT | -0.394 |
| HMHHDQQQITAELARIARNGLPGLTADNAIISRLDALNLLINIHDDRGADATPLRGLLPAIADELLRLT | -0.273 |
| HMKNTADRVYENLFHMLVSGDYAPGDRIPSEHELKERFNVSRNTIRAALNRMNALGIIETRQGDGTYLKG | -0.243 |
| HMRNERDRQLYAAMEKLKAEYREALYLVYFENMSYRDAAAVMAQTEKQISNLVYRGKQSLKTILEQEGF | -2.65 |
| HMDDEAVQIMTLHISKGLEFDVVFALGLVSRTPESKEIEELEAEKQRQLYVAMTRAEKWLIVAA | -0.12 |
| HMYITGAVIRKLREKNNITQLQLAERLRVSDKTISKWETGKGYPDITLLEPIAKTFSVSVTELISGDI | -1.32 |
| HMSSLDTLTARETQILAEMAQGKNNAAIAAAVSVSERAVEKHTNSIFAKLGLSEEKDVNRRVMAVLLFLGR | -3.28 |
| HMRDSYEVEGRIASVSPAAGTFVVAGVTVDYTGARFVGGTVAQLAPGVKVEVEGRRLANGTLQAREIEFD | 0.00935 |
| HMSVYIGVDQAKSIAAEHAGLSNSAVTFSKAKLENDDGMTVYEVEFFYQGTEYDYKIDASTGSILEYDLDR | -1.26 |
| HMGSGLAAAEKIRKAHPEIKIVVATSLIDTQVLARAKAVGADSLWYKDGDEGTLMQVVRRTMAGDHIFP | -0.00704 |
| HMYIENIGDYLKSHDIKPSYQRIKVFEYLMQHKNHPTVDMIYKSLVDEIPTLSKTTVYNTLNLFIEKQI | -1.74 |
| HMPDLQKAIDDLLQVVDKRLNTSFESILNEVNSEKEAVAFFLALLEAVRWGFVKASQSDEGIKIEK | -0.00989 |
| HMLPAGSDAILRYLSSGAVKGIGVATAARIVEKFGDETLRILEEEPGRLAEIKGITAAKAKAIGEAFAGQ | -0.168 |
| HMKRITAVISQKKGRDYYYIIVSYYLSNGKRVQRWIKTEFPINGNNKRKLEQKRIEVLQEWQDKLV | -1.3 |
| HMAPSVNEVAWAQKIIDAHAEAAAAGKGLVVVDGKLIENLHVEEAKQLLSLSDAIAKNDASNG | 0.16 |
| HMDLPREKRIEIGLTYIYGIGLKTSQKILAATGIDPNTRVKDLDETTVSKLREYIDHNYRVEGELRS | -0.504 |
| HMKNQQLFNIGDRFQVDGVAYRMEKLFPENGTVEVYNLGVGRHKTMSFEEILALWNSGKLLFEI | -0.185 |

Source: the domain aggregation screens of Martell et al. (2025)
